From patent US20190309059A1 (SHANGHAI PHARMAEXPLORER, published 2019)

Legend:
[1] = biological target: cynomolgus IL-13 (purchased from sino biological) (cynomolgus) (UniProt Q0PW92); assay: ELISA, cynomolgus IL-13; antibody at 0.11 nM
[2] = biological target: T1, mouse IL-13 (purchased from sino biological) (mouse, UniProt P20109 19-131); assay: ELISA, mouse IL-13; antibody at 13.33 nM
T1 chain: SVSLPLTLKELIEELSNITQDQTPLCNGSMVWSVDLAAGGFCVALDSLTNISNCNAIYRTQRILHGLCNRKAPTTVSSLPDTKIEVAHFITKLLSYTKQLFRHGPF

[3] = biological target: his-labeled human IL-13 (immunogen A) (human) (UniProt P35225); assay: FACS blocking assay: antibody titrated with biotin-labeled immunogen A (20 ng/mL); blocked partner IL-13Ra2 on HEK293 clone 1A1; Alexa 488 streptavidin
[4] = biological target: T1, mouse IL-13 (purchased from sino …); assay: ELISA, mouse IL-13; antibody at 0.53 nM
[5] = biological target: his-labeled human IL-13 (immunogen A) (human) (UniProt P35225); assay: cell-based or functional assay
[6] = biological target: his-labeled human IL-13 (immunogen A) (human) (UniProt P35225); assay: ELISA, biotin-immunogen A; antibody at 0.001 nM
[7] = biological target: his-labeled human IL-13 (immunogen A) (human) (UniProt P35225); assay: FACS blocking, biotin-IL-13 on IL-13Ra2 HEK293 cells; antibody at 0.05 nM
[8] = biological target: T1, mouse IL-13 (purchased from sino …); assay: ELISA, mouse IL-13; antibody at 0.000 nM
[9] = biological target: his-labeled human IL-13 (immunogen A) (human) (UniProt P35225); assay: FACS blocking, biotin-IL-13 on IL-13Ra2 HEK293 cells; antibody at 6.67 nM
[10] = biological target: his-labeled human IL-13 (immunogen A) (human) (UniProt P35225); assay: ELISA, biotin-immunogen A; antibody at 0.021 nM
[11] = biological target: T1, mouse IL-13 (purchased from sino …); assay: ELISA, mouse IL-13; antibody at 0.11 nM
[12] = biological target: cynomolgus IL-13 (purchased from sino biological) (cynomolgus) (UniProt Q0PW92); assay: ELISA, cynomolgus IL-13; antibody at 66.67 nM
[13] = biological target: his-labeled human IL-13 (immunogen A) (human) (UniProt P35225); assay: FACS blocking, biotin-IL-13 on IL-13Ra2 HEK293 cells; antibody at 0.27 nM
[14] = biological target: his-labeled human IL-13 (immunogen A) (human) (UniProt P35225); assay: ELISA, biotin-immunogen A; antibody at 13.33 nM
[15] = biological target: his-labeled human IL-13 (immunogen A) (human) (UniProt P35225); assay: ELISA, biotin-immunogen A; antibody at 0.11 nM
[16] = biological target: cynomolgus IL-13 (purchased from sino biological) (cynomolgus) (UniProt Q0PW92); assay: ELISA, cynomolgus IL-13; antibody at 0.53 nM
[17] = biological target: T1, mouse IL-13 (purchased from sino …); assay: ELISA, mouse IL-13; antibody at 0.004 nM
[18] = biological target: his-labeled human IL-13 (immunogen A) (human) (UniProt P35225); assay: FACS blocking, biotin-IL-13 on IL-13Ra2 HEK293 cells; antibody at 33.33 nM
[19] = biological target: cynomolgus IL-13 (purchased from sino biological) (cynomolgus) (UniProt Q0PW92); assay: ELISA, cynomolgus IL-13; antibody at 0.004 nM
[20] = biological target: his-labeled human IL-13 (immunogen A) (human) (UniProt P35225); assay: ELISA: biotin-labeled immunogen A on streptavidin plate, antibody titrated, HRP secondary antibody, OD450
[21] = biological target: his-labeled human IL-13 (immunogen A) (human) (UniProt P35225); assay: FACS blocking, biotin-IL-13 on IL-13Ra2 HEK293 cells; antibody at 1.33 nM
[22] = biological target: his-labeled human IL-13 (immunogen A) (human) (UniProt P35225); assay: FACS blocking, biotin-IL-13 on IL-13Ra2 HEK293 cells; antibody at 166.67 nM
[23] = biological target: his-labeled human IL-13 (immunogen A) (human) (UniProt P35225); assay: FACS blocking, biotin-IL-13 on IL-13Ra2 HEK293 cells; antibody at 0.002 nM
[24] = biological target: his-labeled human IL-13 (immunogen A) (human) (UniProt P35225); assay: ELISA, biotin-immunogen A; antibody at 0.000 nM
[25] = biological target: cynomolgus IL-13 (purchased from sino biological) (cynomolgus) (UniProt Q0PW92); assay: ELISA, cynomolgus IL-13; antibody at 2.67 nM
[26] = biological target: his-labeled human IL-13 (immunogen A) (human) (UniProt P35225); assay: ELISA, biotin-immunogen A; antibody at 0.53 nM
[27] = biological target: his-labeled human IL-13 (immunogen A) (human) (UniProt P35225); assay: ELISA, biotin-immunogen A; antibody at 2.67 nM
[28] = biological target: cynomolgus IL-13 (purchased from sino biological) (cynomolgus) (UniProt Q0PW92); assay: ELISA, cynomolgus IL-13; antibody at 0.021 nM
[29] = biological target: cynomolgus IL-13 (purchased from sino biological) (cynomolgus) (UniProt Q0PW92); assay: ELISA, cynomolgus IL-13; antibody at 13.33 nM
[30] = biological target: T1, mouse IL-13 (purchased from sino …); assay: ELISA, mouse IL-13; antibody at 0.021 nM
[31] = biological target: T1, mouse IL-13 (purchased from sino …); assay: ELISA, mouse IL-13; antibody at 0.001 nM
[32] = biological target: T1, mouse IL-13 (purchased from sino …); assay: ELISA, mouse IL-13; antibody at 2.67 nM
[33] = biological target: his-labeled human IL-13 (immunogen A) (human) (UniProt P35225); assay: ELISA, biotin-immunogen A; antibody at 0.004 nM
[34] = biological target: his-labeled human IL-13 (immunogen A) (human) (UniProt P35225); assay: FACS blocking assay: antibody titrated with biotin-labeled immunogen A (30 ng/mL); blocked partner IL-13Ra1/IL-4Ra on HEK293 clone 4C1; Alexa 488 streptavidin
[35] = biological target: his-labeled human IL-13 (immunogen A) (human) (UniProt P35225); assay: FACS blocking, biotin-IL-13 on IL-13Ra2 HEK293 cells; antibody at 0.01 nM

cynomolgus IL-13 (purchased from sino biological) (cynomolgus), sequence (Q0PW92 entry or part of it): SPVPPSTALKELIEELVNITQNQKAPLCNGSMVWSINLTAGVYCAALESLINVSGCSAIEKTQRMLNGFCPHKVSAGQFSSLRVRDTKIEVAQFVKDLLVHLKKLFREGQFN

B1: 35E2C3 (lead antibody, mouse hybridoma) (antibody, V domains shown)
VH: EVQLQESGPGLAKPSQTLSLTCSVTGYSITSDYWNWIRKFPGNKLEYMGYISYNGNTYYNPSLKSQISITRDTSKNQLYLQLKSATTEDTATYYCARLAKWTWYFDIWGTGTTVTVSS
VL: DIQMNQSPSSLSASLGDTITITCHASQNINVWLSWYQQKPGSLPKLLIYKASDLHTGVPSRFSGSGSGTGFTLTISSLQPEDIATYYCQQGQSYPYTFGGGTKLEIK
notes: Mouse monoclonal antibody purified from hybridoma supernatant on Protein G
- OD450 nm [1]: 0.11
- OD450 nm [2]: 0.09
- IC50 (read off the curve) [3]: 0.3 nM
- OD450 nm [4]: 0.06
- TARC (pg/mL), A549 cells + IL-13 5 ng/mL + TNFα; antibody at 0.001 nM [5]: 1730 pg/mL
- TARC (pg/mL), A549 cells + IL-13 5 ng/mL + TNFα; antibody at 0.004 nM [5]: 1670 pg/mL
- TARC (pg/mL), A549 cells + IL-13 5 ng/mL + TNFα; antibody at 0.021 nM [5]: 1620 pg/mL
- TARC (pg/mL), A549 cells + IL-13 5 ng/mL + TNFα; antibody at 0.11 nM [5]: 1550 pg/mL
- TARC (pg/mL), A549 cells + IL-13 5 ng/mL + TNFα; antibody at 0.5 nM [5]: 1340 pg/mL
- TARC (pg/mL), A549 cells + IL-13 5 ng/mL + TNFα; antibody at 2.7 nM [5]: 797 pg/mL
- TARC (pg/mL), A549 cells + IL-13 5 ng/mL + TNFα; antibody at 13.3 nM [5]: 278 pg/mL
- TARC (pg/mL), A549 cells + IL-13 5 ng/mL + TNFα; antibody at 66.7 nM [5]: 67 pg/mL
- OD450 nm [6]: 0.05
- mean fluorescence intensity [7]: 66.6
- OD450 nm [8]: 0.07
- mean fluorescence intensity [9]: 35.1
- OD450 nm [10]: 0.15
- OD450 nm [11]: 0.06
- OD450 nm [12]: 1.56
- mean fluorescence intensity [13]: 53.2
- OD450 nm [14]: 1.39
- OD450 nm [15]: 0.41
- OD450 nm [16]: 0.21
- OD450 nm [17]: 0.06
- mean fluorescence intensity [18]: 32.4
- OD450 nm [19]: 0.07
- EC50 (read off the curve) [20]: 0.3 nM
- mean fluorescence intensity [21]: 38.7
- mean fluorescence intensity [22]: 28.9
- mean fluorescence intensity [23]: 76
- OD450 nm [24]: 0.05
- OD450 nm [25]: 0.52
- OD450 nm [26]: 0.91
- OD450 nm [27]: 1.31
- OD450 nm [28]: 0.07
- OD450 nm [29]: 1.13
- OD450 nm [30]: 0.06
- OD450 nm [31]: 0.07
- OD450 nm [32]: 0.08
- OD450 nm [33]: 0.07
- IC50 (read off the curve) [34]: 0.4 nM
- mean fluorescence intensity [35]: 74.3
